# Source: US20110123508A1, “INSTRUMENT CLEANER” (NOVAPHARM RESEARCH (AUSTRALIA) PTY. LTD., priority 2008, published 2011)
# B1: Subtilisin Savinase 16L (protein, UniProt P29600 1-269, looked up)
# Subtilisin Savinase: AQSVPWGISRVQAPAAHNRGLTGSGVKVAVLDTGISTHPDLNIRGGASFVPGEPSTQDGNGHGTHVAGTIAALNNSIGVLGVAPSAELYAVKVLGASGSGSVSSIAQGLEWAGNNGMHVANLSLGSPSPSATLEQAVNSATSRGVLVVAASGNSGAGSISYPARYANAMAVGATDQNNNRASFSQYGAGLDIVAPGVNVQSTYPGSTYASLNGTSMATPHVAGAAALVKQKNPSWSNVQIRNHLKNTATSLGSTNLYGSGLVNAEAATR
# Assays:
# [1] = test system: Pseudomonas aeruginosa ATCC15442; assay: Challenge test of 1:100 diluted cleaners with organic load, Pseudomonas aeruginosa
# [2] = test system: Staphylococcus aureus (ATCC 6538); assay: Challenge test of 1:100 diluted cleaners with organic load, Staphylococcus aureus; settings: cleaner diluted 1:100, organic load, 40±1° C.
# Streptococcus mutan = assay: Challenge test of 1:100 diluted cleaners with organic load, Streptococcus mutan; settings: cleaner diluted 1:100, organic load, 40±1° C.
molecule,measurement,setting,value
B1,"Concentration CFU/ml after time, 0 hrs","[1]; 0 hrs (initial), cleaner diluted 1:100, organic load, 40±1° C.",2.94E+06 CFU/ml
same,"Concentration CFU/ml after time, 1 hr","[1]; 1 hr, cleaner diluted 1:100, organic load, 40±1° C.",3.69E+08 CFU/ml
same,"Concentration CFU/ml after time, 4 hr","[1]; 4 hr, cleaner diluted 1:100, organic load, 40±1° C.",2.06E+09 CFU/ml
same,"Concentration CFU/ml after time, 6 hrs","[1]; 6 hrs, cleaner diluted 1:100, organic load, 40±1° C.",3.80E+09 CFU/ml
same,"Concentration CFU/ml after time, 24 hrs","[1]; 24 hrs, cleaner diluted 1:100, organic load, 40±1° C.",1.46E+11 CFU/ml
same,reduction of microorganisms by single component alone,[1]; protease or phenoxyethanol alone at the concentrations of diluted A and B,Neither the protease nor the phenoxyethanol alone at these concentrations achieved a reduction
same,"Concentration CFU/ml after time, 0 hrs",[2]; 0 hrs (initial),4.21E+07 CFU/ml
same,"Concentration CFU/ml after time, 1 hr",[2]; 1 hr,1.58E+08 CFU/ml
same,"Concentration CFU/ml after time, 4 hrs",[2]; 4 hrs,1.26E+08 CFU/ml
same,"Concentration CFU/ml after time, 6 hrs",[2]; 6 hrs,2.00E+08 CFU/ml
same,"Concentration CFU/ml after time, 24 hrs",[2]; 24 hrs,7.94E+07 CFU/ml
same,"Concentration CFU/ml after time, 0 hrs",Streptococcus mutan; 0 hrs (initial),1.40E+07 CFU/ml
same,"Concentration CFU/ml after time, 1 hr",Streptococcus mutan; 1 hr,3.65E+07 CFU/ml
same,"Concentration CFU/ml after time, 4 hrs",Streptococcus mutan; 4 hrs,2.00E+06 CFU/ml
same,"Concentration CFU/ml after time, 6 hrs",Streptococcus mutan; 6 hrs,1.60E+06 CFU/ml
same,"Concentration CFU/ml after time, 24 hrs",Streptococcus mutan; 24 hrs,1.16E+06 CFU/ml
